Results reported in patent US20200103410A1 (ECS PROGASTRIN, published 2020).

T1: human progastrin (full length) (human)
T1 construct: also called hPG; PG
T1 chain: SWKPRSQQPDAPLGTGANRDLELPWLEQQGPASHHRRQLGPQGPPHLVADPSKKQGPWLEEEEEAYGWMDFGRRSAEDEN

B1: mAb16 (hybridoma 1E9D9B6) (antibody, V domains shown)
VH: QVQLQQSGAELVKPGASVKLSCKASGYTFTSYYMYWVKQRPGQGLEWIGEINPSNGGTNFNEKFKSKATLTVDKSSSTAYMQLSSLTSEDSAVYYCTRGGYYPFDYWGQGTTLTVSS
VL: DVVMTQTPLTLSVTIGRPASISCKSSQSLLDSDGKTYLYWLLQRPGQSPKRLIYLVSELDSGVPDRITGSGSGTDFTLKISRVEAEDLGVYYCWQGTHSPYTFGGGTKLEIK
notes: Murine monoclonal antibody
B2: mAb13 (hybridoma 2C6C3C7) (antibody, V domains shown)
VH: EVQLVESGGGLVQPGGSLKLSCAASGFIFSSYGMSWVRQSPDRRLELVASINTFGDRTYYPDSVKGRFTISRDNAKNTLYLQMTSLKSEDTAIYYCARGTGTYWGQGTTLTVSS
VL: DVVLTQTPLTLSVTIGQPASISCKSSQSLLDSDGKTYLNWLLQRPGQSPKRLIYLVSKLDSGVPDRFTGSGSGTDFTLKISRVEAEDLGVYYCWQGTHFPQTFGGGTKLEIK
notes: Murine monoclonal antibody
B3: mAb4 (hybridoma 20D2C3G2) (antibody, V domains shown)
VH: QVQLQQSGAELMKPGASVKISCKATGYTFSSSWIEWLKQRPGHGLEWIGEFLPGSGSTDYNEKFKGKATFTADTSSDTAYMLLSSLTSEDSAVYYCATDGNYDWFAYWGQGTLVTVSA
VL: DLVMTQTPLSLPVSLGDQASISCRSSQSLVHSSGVTYLHWYLQKPGQSPKLLIYKVSNRFSGVPDRFSGSGSGTDFTLKISRVEAEDLGVYFCSQSTHVPPTFGSGTKLEIK
notes: Murine monoclonal antibody
B4: mAb19 (hybridoma 1B3B4F11) (antibody, V domains shown)
VH: DVQLQESGPGLVKPSQSLSLTCTVTGYSITSDYAWNWIRQFPGNKLEWMGYISFSGYTSYNPSLKSRISVTRDTSRNQFFLQLTSVTTEDTATYYCAREVNYGDSYHFDYWGQGTIVTVSS
VL: QLALTQSSSASFSLGASAKLTCTLSSQHRTYTIEWYQQQSLKPPKYVMEVKKDGSHSTGHGIPDRFSGSSSGADRYLSISNIQPEDEAIYICGVGDAIKGQSVFVFGGGTKVTVL
notes: Murine monoclonal antibody
B5: mAb3 (hybridoma 6B5B11C10) (antibody, V domains shown)
VH: EVQLQQSGTVLARPGASVKMSCKASGYIFTSYWVHWVKQRPGQGLEWIGGFYPGNSDSRYNQKFKGKATLTAVTSASTAYMDLSSLTNEDSAVYFCTRRDSPQYWGQGTTLTVSS
VL: DVLMTQTPLSLPVSLGDQASISCRSSQSIVHSNGNTYLEWYLQKPGQSPKLLIYKVSNRFSGVPDRFSGSGSGTDFTLKISRLEAEDLGVYYCFQGSHVPFTFGGGTKLEIK
notes: Murine monoclonal antibody

Target: T1, human progastrin (full length)
Experiment: epitope mapping (no details given)
B1: binds.
B2: binds.
B3: binds.
B4: binds.
B5: binds.
